Data published in US20220202901A1, “PEPTIDES IN COMBINATION WITH IMMUNE CHECKPOINT INHIBITORS FOR USE IN TREATMENT OF CANCER” (WNTRESEARCH AB, priority 2019, published 2022).

Experiments:
SKBR3 cells = test: Functional immune response assay: PBMC cytotoxicity against SKBR3 cells; format: cell-based; conditions: SKBR3, relative to vehicle control
Procedure: (§1) Purpose: Examining the cytotoxic effect of Foxy-5 and an anti-PD-L1 antibody alone or in combination in a functional immune response assay with different breast cancer cell lines.
(§2) Peripheral blood mononuclear cells (PBMCs) were isolated from whole blood using Ficoll Paque based density centrifugation.
(§3) SKBR3 (low in PD L1, denoted PD L1+) or HCC1954 (high in PD L1, denoted PD L1+++) cells were stained with 0.1 mM CFSE.
(§4) Effector cells (EC), i.e. PMMCs and target cells (TC), i.e. SKBR3 or HCC1954 cells, respectively, were brought to a concentration of 2×10^5 cells/ml.
(§5) Cells were treated with and without Foxy5 (100 μM), the cells were also treated with and without pembrolizumab […].
(§6) Cells were plated at EC:TC ratios of 1:1 (first bar), 5:1 (second bar) and 10:1 (third bar) along with basal cell death controls and total cell death controls. Once plated, cells were spun down and incubated for 12 hours. After 12 hours cells were re suspended with 5 μg/ml 7AAD. Cells were then analysed on the Guava flow cytometer.
(§7) Based on staining patterns live/dead cell and immune/cancer cell differentiation can be determined and the direct cytotoxicity in terms of the cell death percentage was calculated.
Direct cytotoxicity elicited by PBMCs against the SKBR3 cell line in the presence of FOXY-5 and/or pembrolizumab relative to vehicle control. […]

HCC1954 cells = test: Functional immune response assay: PBMC cytotoxicity against HCC1954 cells; format: cell-based
Procedure: as §1, §2, §3, §4, §5, §6, §7
Direct cytotoxicity elicited by PBMCs against the HCC1954 cell line in the presence of FOXY-5 and/or pembrolizumab relative to vehicle control. […]

Pembrolizumab
trastuzumab mediated ADCC (SKBR3 cells; EC:TC 10:1 and 5:1 ratios): decreased | direct PBMC cytotoxicity (SKBR3 cells; EC:TC 10:1 ratio): increased | direct PBMC cytotoxicity (HCC1954 cells; HCC1954 (PD L1 high), relative to vehicle control, EC:TC 5:1 and 10:1 ratios): increased | direct cytotoxicity (HCC1954 cells; HCC1954, pembrolizumab added to Foxy-5 vs. single agent, ratios 1:1 and 10:1): increased
